Measured values as given in patent EP1812465B1.
Blank lines part the entries; values can stand above or below the substance they belong to.

How the values were obtained:
PRO87299(ECD)-Fc (human) = assay: Biacore; PRO87299(ECD)-Fc amine coupled (~9000 RU), HVEM injected at 2µg/ml, against the PR04346-Fc control flow cell
[1] = target: PRO87299/LIGHT expressed together on cells (human); assay: radioligand binding to cells expressing PRO87299 and LIGHT together, Scatchard analysis
LIGHT expressed on cells = assay: radioligand binding to transfected cells, Scatchard analysis
[2] = target: HVEM expressed on transfected 293 cells; assay: as above
[3] = target: HVEM expressed on transfected 293 cells; assay: radioligand binding to transfected cells, displacement with unlabelled protein, Scatchard analysis
HVEM-Fc = assay: Biacore; HVEM-Fc amine coupled (~7500 RU), 8nM PRO87299(ECD)-Fc, read 105 seconds after injection

- response units over control (response units) (PRO87299(ECD)-Fc (human)): 1200
Substance: HVEM (protein of the SPDI protein library) (receptor)

Substance: HVEM-Fc (Fc fusion)
- Kd [1]: 0.5 nM
- Kd (LIGHT expressed on cells): 7 nM

- Kd [2]: 2.5 nM
Substance: I-125-LIGHT-FLAG (ligand)

Substance: PRO87299(ECD)-Fc (Fc fusion)
- Kd [3]: 25 nM
- response units (HVEM-Fc): 100 RU
